B1: G11 antibody (scFv, part only; not given: linker between domains, part only)
scFv, part: QAALTQPSSVSANPGEIVEITCSGGGTYYGWYQQKSPGSAPVTMIYQNNQRPSNIPSRFSGSGSGPANTLTITGVRAEDEAVYYCGGYDSSAGYATFGAGTTLTVLAVTLDESGGGLQTPGGGLSLVCKASGFSISSYSMYWVRQAPGKGLEFVASISSDGSDTSYGSAVKGRATISRDNGQSTVRLQLNYLRAEDTGTYFCAKPTGGYYTWYETGSIDTWGHGTEVIVSS
B2: G05 antibody (scFv, V domains shown)
VH: AVTLDESGGGLQTPGRALSLVCKASGFTFSSYAMHWVRQAPGKGLEFVAGIDNIGSYTRYGAAVKGRVTISRDNGQSIVRLQLDNLRAEDTGTYYCAKSAYGGSCCGPAYIDAWGHGTEVIVSS
VL: QAALTQPSSVSANPGETVEITCSGGGRSSYYGWYQQKSPGSAPVTLIYDNTNRPSNIPSRFSGSKSGSTATLTITGVQGEDEAVYFCGSADSSTTGIFGAGTTLTVL
notes: Chicken antibody from an scFv library (VH and VL joined by a flexible linker); also called scFv fragment of G05

How the values were obtained:
[1] = target: plasminogen (human) (UniProt P00747); assay: cell-based or functional assay
[2] = target: plasminogen (human) (UniProt P00747); assay: SPR (Biacore T200), antibody immobilised; FIG. 2
[3] = target: plasminogen (human) (UniProt P00747); assay: SPR, multi-cycle; G11 immobilised on the chip, plasminogen injected as analyte; 1:1 Langmuir fit
[4] = target: T1, plasmin (human, UniProt P00747 20-580; P00747 581-810); assay: SPR, multi-cycle; G05 immobilised on the chip, plasmin injected as analyte; 1:1 Langmuir fit
T1 construct: Bought plasmin (Haematologic Technologies) is named in the activity assay; also called Plm; PLM
T1 sequence (P00747 20-580, chain 1 of 2): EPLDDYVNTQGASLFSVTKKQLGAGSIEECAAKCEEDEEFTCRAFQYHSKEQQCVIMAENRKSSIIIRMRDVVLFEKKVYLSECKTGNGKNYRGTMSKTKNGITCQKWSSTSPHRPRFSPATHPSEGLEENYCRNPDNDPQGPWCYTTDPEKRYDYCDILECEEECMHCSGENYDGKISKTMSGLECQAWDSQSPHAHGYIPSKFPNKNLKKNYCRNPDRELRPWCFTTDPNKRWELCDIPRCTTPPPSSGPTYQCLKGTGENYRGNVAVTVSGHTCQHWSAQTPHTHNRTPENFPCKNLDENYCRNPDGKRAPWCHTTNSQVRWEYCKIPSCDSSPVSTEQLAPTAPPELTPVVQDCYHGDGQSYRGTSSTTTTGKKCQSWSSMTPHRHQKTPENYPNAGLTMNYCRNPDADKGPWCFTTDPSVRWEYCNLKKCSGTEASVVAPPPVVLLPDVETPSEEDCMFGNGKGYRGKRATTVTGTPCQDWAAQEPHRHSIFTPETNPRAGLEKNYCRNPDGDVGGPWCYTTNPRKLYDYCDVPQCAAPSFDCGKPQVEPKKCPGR
T1 sequence (P00747 581-810, chain 2 of 2): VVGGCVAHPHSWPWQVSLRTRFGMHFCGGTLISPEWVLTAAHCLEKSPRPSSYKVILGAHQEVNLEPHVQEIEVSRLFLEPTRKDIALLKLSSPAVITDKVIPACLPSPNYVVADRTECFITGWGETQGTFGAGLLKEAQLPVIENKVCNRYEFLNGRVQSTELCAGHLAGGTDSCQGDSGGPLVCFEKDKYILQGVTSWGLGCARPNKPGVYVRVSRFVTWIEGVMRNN
Text: Dotted lines represent 1:1 Langmuir model fit to experimental data.

[5] = target: unactivatable mutant of plasminogen (recombinant plasminogen labelled with Alexa-Fluor 647) (human) (UniProt P00747); assay: SDS-PAGE fluorescence scan of the bound fraction: 0.2 µM labelled plasminogen on Group A Streptococcus cells with 7.5 µM G05
[6] = target: unactivatable mutant of plasminogen (recombinant plasminogen labelled with Alexa-Fluor 647) (human) (UniProt P00747); assay: flow cytometry: 22.2 nM Alexa-Fluor 647 plasminogen on Group A Streptococcus cells with 2.22 µM G05
[7] = target: plasminogen (human) (UniProt P00747); assay: SPR (Biacore T200), antibody immobilised; FIG. 1
[8] = target: plasminogen (human) (UniProt P00747); assay: SPR, multi-cycle; G05 immobilised on the chip, plasminogen injected as analyte; 1:1 Langmuir fit

Row | Binder | IC50 of tPA-mediated plasminogen activation in solution (20 nM plasminogen, 20 mM EACA, 4 nM tPA, fluorogenic plasmin substrate) [1] [nM] | IC50 of tPA-mediated plasminogen activation on a preformed fibrin clot (100 nM plasminogen) [1] [nM] | fold greater affinity for plasminogen compared to plasmin [2] [fold] | Kd [3] [nM] | koff [3] [s⁻¹] | kon [3] [M⁻¹ s⁻¹] | Kd [4] [nM] | koff [4] [s⁻¹] | kon [4] [M⁻¹ s⁻¹] | percent reduction in plasminogen binding to GAS cells [5] [%] | percent inhibition of plasminogen binding to GAS cells [6] [%] | fold greater affinity for plasminogen compared to plasmin [7] [fold] | Kd [8] [nM] | koff [8] [s⁻¹] | kon [8] [M⁻¹ s⁻¹]
1 | B1 | 20 | 47 | 10 | 14 | 0.0018 | 420000 | – | – | – | – | – | – | – | – | –
2 | B2 | 17.3 | 292 | – | – | – | – | 0.76 | 0.00046 | 640000 | 70 | 40 | 10 | 7.9 | 0.00071 | 409000

— US20220380484A1 (MONASH UNIVERSITY, published 2022)
